B1: Dual specificity mitogen-activated protein kinase kinase 5 (Homo sapiens), Q13163 (parent)
chain: MLWLALGPFPAMENQVLVIRIKIPNSGAVDWTVHSGPQLLFRDVLDVIGQVLPEATTTAFEYEDEDGDRITVRSDEEMKAMLSYYYSTVMEQQVNGQLIEPLQIFPRACKPPGERNIHGLKVNTRAGPSQHSSPAVSDSLPSNSLKKSSAELKKILANGQMNEQDIRYRDTLGHGNGGTVYKAYHVPSGKILAVKVILLDITLELQKQIMSELEILYKCDSSYIIGFYGAFFVENRISICTEFMDGGSLDVYRKMPEHVLGRIAVAVVKGLTYLWSLKILHRDVKPSNMLVNTRGQVKLCDFGVSTQLVNSIAKTYVGTNAYMAPERISGEQYGIHSDVWSLGISFMELALGRFPYPQIQKNQGSLMPLQLLQCIVDEDSPVLPVGEFSEPFVHFITQCMRKQPKERPAPEELMGHPFIVQFNDGNAAVVSMWVCRALEERRSQQGPP

Variants of: B1
Conditions: with mk07_human MAPK7, Q13164
Chain of mk07_human MAPK7, Q13164 (Q13164 whole entry, looked up): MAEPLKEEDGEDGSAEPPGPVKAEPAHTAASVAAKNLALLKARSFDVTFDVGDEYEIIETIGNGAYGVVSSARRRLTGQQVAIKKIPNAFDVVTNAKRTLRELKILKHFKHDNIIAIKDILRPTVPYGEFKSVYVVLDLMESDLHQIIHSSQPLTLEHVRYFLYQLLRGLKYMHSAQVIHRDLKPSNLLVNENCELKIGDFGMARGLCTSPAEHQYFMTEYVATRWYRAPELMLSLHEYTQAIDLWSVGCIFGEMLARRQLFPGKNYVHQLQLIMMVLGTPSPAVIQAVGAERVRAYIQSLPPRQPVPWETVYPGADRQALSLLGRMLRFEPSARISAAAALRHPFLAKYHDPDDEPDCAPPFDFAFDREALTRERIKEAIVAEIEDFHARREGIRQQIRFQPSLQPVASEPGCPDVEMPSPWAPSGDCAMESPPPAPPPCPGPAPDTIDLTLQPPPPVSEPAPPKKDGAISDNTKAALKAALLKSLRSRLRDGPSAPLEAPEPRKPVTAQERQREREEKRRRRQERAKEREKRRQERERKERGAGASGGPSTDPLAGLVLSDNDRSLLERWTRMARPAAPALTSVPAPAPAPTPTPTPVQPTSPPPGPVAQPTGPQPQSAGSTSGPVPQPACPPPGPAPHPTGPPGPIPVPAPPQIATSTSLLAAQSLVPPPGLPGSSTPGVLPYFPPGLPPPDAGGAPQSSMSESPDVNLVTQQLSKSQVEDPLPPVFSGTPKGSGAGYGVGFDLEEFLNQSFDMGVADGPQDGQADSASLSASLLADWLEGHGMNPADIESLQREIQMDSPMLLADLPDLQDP

| Variant | effect of a mutation on the interaction |
| --- | --- |
| MLWLALGPFPAMENQVLVIRIKIPNSGAVDWTVHSGPQLLFRDVLDVIGQVLPEATTTAFEYEDEDGDRITVRSDEEMKAMLSYYYSTVMEQQVNGQLIEPLQIFPRACKPPGERNIHGLKVNTRAGPSQHSSPAVSDSLPSNSLKKSSAELKKILANGQMNEQDIRYRDTLGHGNGGTVYKAYHVPSGKILAVKVILLDITLELQKQIMSELEILYKCDSSYIIGFYGAFFVENRISICTEFMDGGSLDVYRKMPEHVLGRIAVAVVKGLTYLWSLKILHRDVKPSNMLVNTRGQVKLCDFGVSTQLVNAIAKAYVGTNAYMAPERISGEQYGIHSDVWSLGISFMELALGRFPYPQIQKNQGSLMPLQLLQCIVDEDSPVLPVGEFSEPFVHFITQCMRKQPKERPAPEELMGHPFIVQFNDGNAAVVSMWVCRALEERRSQQGPP [S311A;T315A] | increasing interaction |

Variants of: B1
Conditions: with mk07_human MAPK7, Q13164
Remark: another data set of the same source

| Variant | effect of a mutation on the interaction |
| --- | --- |
| MLWLALGPFPAMENQVLVIRIKIPNSGAVDWTVHSGPQLLFRDVLDVIGQVLPEATTTAFEYEDEDGDRITVRSDEEMKAMLSYYYSTVMEQQVNGQLIEPLQIFPRACKPPGERNIHGLKVNTRAGPSQHSSPAVSDSLPSNSLKKSSAELKKILANGQMNEQDIRYRDTLGHGNGGTVYKAYHVPSGKILAVMVILLDITLELQKQIMSELEILYKCDSSYIIGFYGAFFVENRISICTEFMDGGSLDVYRKMPEHVLGRIAVAVVKGLTYLWSLKILHRDVKPSNMLVNTRGQVKLCDFGVSTQLVNSIAKTYVGTNAYMAPERISGEQYGIHSDVWSLGISFMELALGRFPYPQIQKNQGSLMPLQLLQCIVDEDSPVLPVGEFSEPFVHFITQCMRKQPKERPAPEELMGHPFIVQFNDGNAAVVSMWVCRALEERRSQQGPP [K195M] | increasing interaction |

From IntAct's records for PubMed 7759517
